In PMC5755487, “Combining Chemical Cross-linking and Mass Spectrometry of Intact Protein Complexes to Study the Architecture of Multi-subunit Protein Assemblies” (Journal of Visualized Experiments : JoVE, 2017):
Values joined by “and” are separate entries in the source; they are usually repeats but may differ in a detail not shown here. Equal entries are not always repeated. Values belong to the molecule of their own block, whether it stands above or below them.

B1: small subunit of carbamoyl phosphate synthase (CPS) from Escherichia coli (enzyme)
chain: MIKSALLVLEDGTQFHGRAIGATGSAVGEVVFNTSMTGYQEILTDPSYSRQIVTLTYPHIGNVGTNDADEESSQVHAQGLVIRDLPLIASNFRNTEDLSSYLKRHNIVAIADIDTRKLTRLLREKGAQNGCIIAGDNPDAALALEKARAFPGLNGMDLAKEVTTAEAYSWTQGSWTLTGGLPEAKKEDELPFHVVAYDFGAKRNILRMLVDRGCRLTIVPAQTSAEDVLKMNPDGIFLSNGPGDPAPCDYAITAIQKFLETDIPVFGICLGHQLLALASGAKTVKMKFGHHGGNHPVKDVEKNVVMITAQNHGFAVDEATLPANLRVTHKSLFDGTLQGIHRTDKPAFSFQGHPEASPGPHDAAPLFDHFIELIEQYRKTAK
notes: carbamoyl phosphate synthase small subunit, Escherichia coli; also called small CPS subunit
B2: large subunit of carbamoyl phosphate synthase (CPS) from Escherichia coli (enzyme)
chain: MPKRTDIKSILILGAGPIVIGQACEFDYSGAQACKALREEGYRVILVNSNPATIMTDPEMADATYIEPIHWEVVRKIIEKERPDAVLPTMGGQTALNCALELERQGVLEEFGVTMIGATADAIDKAEDRRRFDVAMKKIGLETARSGIAHTMEEALAVAADVGFPCIIRPSFTMGGSGGGIAYNREEFEEICARGLDLSPTKELLIDESLIGWKEYEMEVVRDKNDNCIIVCSIENFDAMGIHTGDSITVAPAQTLTDKEYQIMRNASMAVLREIGVETGGSNVQFAVNPKNGRLIVIEMNPRVSRSSALASKATGFPIAKVAAKLAVGYTLDELMNDITGGRTPASFEPSIDYVVTKIPRFNFEKFAGANDRLTTQMKSVGEVMAIGRTQQESLQKALRGLEVGATGFDPKVSLDDPEALTKIRRELKDAGADRIWYIADAFRAGLSVDGVFNLTNIDRWFLVQIEELVRLEEKVAEVGITGLNADFLRQLKRKGFADARLAKLAGVREAEIRKLRDQYDLHPVYKRVDTCAAEFATDTAYMYSTYEEECEANPSTDREKIMVLGGGPNRIGQGIEFDYCCVHASLALREDGYETIMVNCNPETVSTDYDTSDRLYFEPVTLEDVLEIVRIEKPKGVIVQYGGQTPLKLARALEAAGVPVIGTSPDAIDRAEDRERFQHAVERLKLKQPANATVTAIEMAVEKAKEIGYPLVVRPSYVLGGRAMEIVYDEADLRRYFQTAVSVSNDAPVLLDHFLDDAVEVDVDAICDGEMVLIGGIMEHIEQAGVHSGDSACSLPAYTLSQEIQDVMRQQVQKLAFELQVRGLMNVQFAVKNNEVYLIEVNPRAARTVPFVSKATGVPLAKVAARVMAGKSLAEQGVTKEVIPPYYSVKEVVLPFNKFPGVDPLLGPEMRSTGEVMGVGRTFAEAFAKAQLGSNSTMKKHGRALLSVREGDKERVVDLAAKLLKQGFELDATHGTAIVLGEAGINPRLVNKVHEGRPHIQDRIKNGEYTYIINTTSGRRAIEDSRVIRRSALQYKVHYDTTLNGGFATAMALNADATEKVISVQEMHAQIK
notes: carbamoyl phosphate synthase large subunit, Escherichia coli; also called large CPS subunit

Key:
[1] = biological target: RvB2 subunit of the RvB1/B2 complex from Chaetomium thermophilum (Chaetomium thermophilum); experiment: native MS; purified complex exchanged into 200 mM ammonium acetate, nano-electrospray, Q-ToF instrument; intact complexes and sub-complexes
[2] = biological target: B2; experiment: as above; details: both partners purified
[3] = biological target: the molecule itself; experiment: cross-linking; purified complex with BS3 (0.5-5 mM titrated), 25 °C, 1 h; SDS-PAGE, in-gel trypsin digestion, LC-MS/MS, pLink search

stoichiometry N (RvB1 per RvB2 (3:3)) [1]: 1
stoichiometry N (RvB1 per RvB2 (6:6)) [1]: 1
Molecule: RvB1 subunit of the RvB1/B2 complex from Chaetomium thermophilum (natural protein)

Molecule: B1
stoichiometry N [2]: 1 small per large subunit (1:1) and 1 small per large subunit (2:2)

Molecule: B2
binding result [3]: binds
